Measurements taken from the DeepSol protein solubility set.

Experiment: soluble on expression in E. coli; label from the status in PepcDB or PDB records

Row | Sequence | soluble on expression in E. coli
1 | MSLGEHILLNQTLSDVIHYFKSQRCGGVFDQQDRQVPVLNANQTVDVHGGWYDASGDVSKYLSHLSYANYLNPQQTPMVVWNILKGLSLLEGSEDIAAFTRTRLIEEALFGADFLVRMQNEKGFFYMTVFDKWSKDTAQREICAYETQLGHKFDDYQAGFRQGGGVAIAALAAASRLGVHGEYDQQKYRNAAENGYWHLKEHNTQYLNDGEENIIDEYCALLASVELFKATKETRYLEESRLWAQRLVARQMSDEQIQHFWSANQDGSRPYFHAAEAGLPGIALCEYLAIEDDSVQTESVKCIVNRACEFEIKISNKVTNPFGYPRQYVKGVNESKRDAFFVAHNNESGYWWQGENARLGSLATMAYLAQPHIASQEIQQQLSVFAQDALNWIVGLNPYDMCMLDGHGRNNPDYLPQYGFFNAKGGVCNGITGGFEDEEDIAFNPPAQKDDMLQNWRWGEQWIPHGAWYLLAIMSQAQHISQLATSKNIKEGHHHHHH | not soluble
2 | MGAVGRGRRMSERHLRRSTHKVGDITLGAVHRLNCHCGAVQIDLDLPHGLVDPRRCDCSMCRRRGAIVASVPLQGLHVRQGEDVLRLYQFNTHAAAHYFCGVCGIYTHHRRRSNPNEYGYNVGCLEGVNPYALNITVPVEDGIHHPADRVAPQLEHHHHHH | not soluble
3 | MDMPVDPNEPTYCLCHQVSYGEMIGCDNPDCSIEWFHFACVGLTTKPRGKWFCPRCSQER | soluble
4 | MSLDLHNDLKSYLSELNTYSHVDKNEIYHSQRAGYMTGGGISIRNGASHTALAQVSLPKFDAGCGGIDIFTGGISFISHDQLIAALKNIASSAQGYAFMLGIETVSPLIASTMKQMETWANAINSLGINSCEVATGLVGSVWPARTAAKQQICRSAKNGGFASSFINARHQCADEGDYAKTMQSMAKDPLYDGMLLEEYNLTWKAVQKHPFLAKKENRKMAEEIMSLTGTLIIRRDKSLVVEPWPSRIYDDSFLPILLEGGTTRVYQCTGGNAKQNCLALEMKELTIPAEQAWKGRIKQALATIQQKILADTPLASEEIDLLSKSRLPLFKIVNVLTAYKREVSPISLYEVAEIVGNEMLIQYLREIIGTVRLAAIQLERGQMYDFDSQKFIEELERVEKVVSRYEERHYQRLEAENQLMLKIETLEQKIASQIILFEGHHHHHH | not soluble
5 | MGSDKIHHHHHHMDNYEGSDPWNTSSNAWTKDDDHVVSTTNSEPSLNGISGEFNTLNFSTPLDTNEEDTGFLPTNDVLEESIWDDSRNPLGATGMSQTPNIAANETVIDKNDARDQNIEESEADLLDWTNNVRKTYRPLDADIIIIEEIPEREGLLFKHANYLVKHLIALPSTSPSEERTVVRRYSDFLWLREILLKRYPFRMIPELPPKRIGSQNADQLFLKKRRIGLSRFINLVMKHPKLSNDDLVLTFLTVRTDLTSWRKQATYDTSNEFADKKISQEFMKMWKKEFAEQWNQAASCIDTSMELWYRITLLLERHEKRIMQMVHERNFFETLVDNFSEVTPKLYPVQQNDTILDINNNLSIIKKHLETTSSICKQETEEISGTLSPKFKIFTDILLSLRSLFERYKIMAANNVVELQRHVELNKEKLESMKGKPDVSGAEYDRIKKIIQKDRRSIIEQSNRAWLIRQCILEEFTIFQETQFLITRAFQDWAKLNSNHAGLKLNEWEKLVTSIMDMPISRE | not soluble
6 | MGSDKIHHHHHHMIRFKDIHIPKPCSVEYDTLPGDDIKRFCGSCEKYVYDFRGKDQAYLNAVFSATGKACGIYYADQIQASPALKTNRPFYSSFVSKLIATSLFLRIFLTSNNTKAHRTEPQTIVQQTTDSTELKTIHTGNDKAMYRVTVDIYKNDTLEESFLLENQNSIYLPDSIKPLDKIKVVVSTVRYNIPTSKNRTRSGKYMSNKTYYTTEQKKTYHFNFAGCNKIIIKIRHTKFIHIFLKKRTAIMGLVCPSDFW | not soluble
7 | MGSDKIHHHHHHMAGRRAIAQNLLISNNDRQERTTRMNDKRNCFLPHDKLQHLIDSLQNAGYSCVGPQVRDGAIVYDVLTRAEQLPWGMRDHQEPGGYRLEQIPERKAFAFANGPQGIKPLLFKPQETVWRVERDEQGKLCFKPHQPDETPVAIIGSRACDLAAMSIQDKVFIENNKPDPRYKRRREQLFVVAVNCTYSSANCFCVSAGTGPAVNNSFDILMTEIEDGFVVEAGSDKGKKIMNQLDLHDAKSAQCTDAQNNVKQAAALQTKRIPLDNKRDLRDLLFSNLNHTRWDDVAERCLSCGNCTLVCPTCFCHSEVEKPGLDGCTSEHHREWDSCFTTGHTYLNGKIIRDDTKKQYRQWLTHKVGSWFDQFDTSGCVGCGRCVTWCPVGIDITEELAAISGESNARKIENE | not soluble
8 | MKRADDFQQRRAHLANLSDEELQTRFWEMAEKIVDPLLDLGKKNTTPSIERSVLLRMGFSSLEAKAIVDKTMDRGLMGKGAGHIVYKIAKEKNISVREAGLALSEGKYWDDAIQIFKGGVK | soluble
9 | MSLATKLRRVRKSPPEGWDLIEPTLEQFEAKMREAETEPHEGKRKTEINWPIFRIHHQRSRYVYDMYYKKAEISRELYEFCLTAKFADAALIAKWKKQGYENLCCVKCVNTRDSNFGTACICRVPKSKLDAERVIECVHCGCHGCSG | not soluble
10 | MAAQPNAPESAWPVRELNSKVKSWIERLGHLWVEGQITQLNMKPSWKFSYITLRDPEAEASVQLTCATSLLHSLPSRLQDGDRVVVYGKPAFYEGRGSFSLWVTDIRPVGVGELLARIERLRQQLASEGLFDPALKKPLPFLPHTIGLITGRGSAAERDVLAVAHSRWPEVKFNVINTAVQGARAVPEIIEALQRLDADPSVDVIIIARGGGSVEDLLPFSEEALQRAVVAAHTPVVSAIGHEPDNPVLDNVADLRAATPTDAAKKVVPDVAAERQLIAELRSRSAAALRGWVHKERQQLAAVRSRPALADPVRAITLHREEIARSISSIRRDMRYMLSTERATVASLRQQVAALGPSATLARGYAVVQVVPRDGSAPEVVTTIGMSPPGSQLRIRVADGSITAAAMQTTPAD | not soluble
11 | MKEIKFLHIADLHLDSPFIGLSTLPQPLFSAVQESTFQSLERIITIAIKEAVEFVLIAGDIYDSEDQSVRAQARFSKEMKRLEQAGIKAFIIHGNHDFIEKHKEKLQLPGNVHVFSEQVEMAAMETKNGAIVHIYGFSYGERHIRASRVNEYNKQGEADFHIGLLHGSELSSSEDHDVYAPFRIQEITKKGFDYWALGHIHKRQLLAESPSVYYPGNIQGRNRKESGEKGASIVTLSASNTTIDFIATSPIIWEEVIITLPENSEINTFYREITKLLATYQGQSNSFFLHVIVQMANKQKINTTDWLQMLQEETDLTGSTFIWVHKLTIELTNQSDLKNWHEQHLASKEITQAFEKLQDESAFYQTVEALYFESGVSRYLDDLSEEDRQLMLDAALTELGTVLKEVEGDEK | not soluble
12 | MSLTEPDSKPKKGRAGRKKAEPVRPPEQFLELAELLDYVGQVIARGVPGGVWVRAEIASLTDRRHLYLDLVQAGEGGAGGVGEVAKCRATVWARERFALEAKFRGATSGATLSAGLKVLLFGTAEFHPQYGFSFNVLDISPEYTLGDAALRLEAMRAELVAEGSYGLNRLLPVPTDFARVAVIAPREAAGLGDFRREADPLEAAGLVEFHYLEATFQGREAGASLLRAVAAARELHQEKALDALFVIRGGGAVTDLAWLNDLELARALATFPAPVVTGLGHARDDTLPDEVACLRTDTPSKAAAYLVRTVVNAAAQAQEAARTIRAEAARVLVEAEAAAAWARDRALSSAVRRVDAAAAEVDALMRQALGLTPQRTLARGYALVRDAAGQPVTRAAGARAGEPLTLEWSDGSVEGHHHHHH | soluble
13 | SNAMADKIKVGLLGYGYASKTFHAPLIMGTPGLELAGVSSSDASKVHADWPAIPVVSDPQMLFNDPSIDLIVIPTPNDTHFPLAQSALAAGKHVVVDKPFTVTLSQANALKEHADDAGLLLSVFHNRRWDSDFLTLKTLLAEGSLGNVVYFESHFDRYRPEIRQRWREQAGAGGGIWYDLGPHLLDQALQLFGLPETLNVDLGMLRPGSQSVDYFHAVLSYPGQRVVLHSTVLAAAETARYIVHGTQGSYIKFGVDPQEDRLKAGERLPQADWGYDMRDGIVTLSHDNVLTEKPLLTLPGNYPAYYAGIRDAIWGTAPNPVPATEAIKVMELIELGIASDQQKKALPIIAKN | soluble
14 | MRRVSINSFLEPNSPNVPNRVTIPDGDLRRNSDDTATDRISLTNQLGKSAYSTTTEDSIDSETSETRMDSSRTSEISGNVKEDPVSENQYVLENSESSESIVVDLEMPGMTLRSKASPRKRYMSKKEKDLNDEKKNFKDLVLTIGQNQIQDPDEDFQITKEAIDLLQSESDKILLEMFTSSNAIATAGERDILTPTDIQTARHIQMIMKKYKK | not soluble
